Where two headings read alike, the source gives them in different places. Values belong to the molecule of their own block, whether it stands above or below them. Square brackets hold non-standard residues; d marks the D form. Ends that are not written are not given here. fluorescein = N-terminal fluorescein label; pT = C[C@@H](OP(=O)(O)O)[C@H](N)C(=O)O
How the values were obtained:
[1] = target: 14-3-3θ (UniProt P27348); assay: fluorescence polarization direct binding; conditions: reference: unphosphorylated T2524 peptide; sites T2524
[2] = target: 14-3-3ε (UniProt P62258); assay: fluorescence polarization direct binding; conditions: reference: unphosphorylated T2524 peptide; sites T2524
[3] = target: 14-3-3η (UniProt Q04917); assay: fluorescence polarization direct binding; conditions: reference: unphosphorylated T2524 peptide; sites T2524
[4] = target: 14-3-3ζ (UniProt P63104); assay: fluorescence polarization direct binding; conditions: reference: unphosphorylated T2524 peptide; sites T2524
[5] = target: 14-3-3β (UniProt P31946); assay: fluorescence polarization direct binding; conditions: reference: unphosphorylated T2524 peptide; sites T2524
[6] = target: 14-3-3γ (UniProt P61981); assay: fluorescence polarization direct binding; conditions: reference: unphosphorylated T2524 peptide; sites T2524
[7] = target: 14-3-3σ (UniProt P31947); assay: fluorescence polarization direct binding; conditions: reference: unphosphorylated T2524 peptide; sites T2524
[8] = target: pS910/pS935; assay: fluorescence polarisation; direct binding; dilution series of 14-3-3 isoform (at least 5 μM down to picomolar) mixed with 1 nM fluorescein-labelled peptide; 20 mM MOPS pH 7, 150 mM NaCl, 0.005% CHAPS; 384-well plates
[9] = target: pS1444; assay: as above
[10] = target: Q930R/pS935; assay: as above
[11] = target: pS910/pS935; assay: as above; remark: listed apart in the source
[12] = target: T1, R1441C/pS1444 (R1441C (stands in the printed letters)); assay: as above
T1 construct: LRRK2-derived peptide of the Roc domain with the familial PD mutation R1441C, phosphorylated at S1444; source: synthetic peptide (Peps4LS GmbH)
T1 peptide: fluorescein-LFNIKACAS[pS]SPVILVGT

[13] = target: LRRK2 pS910/pS935 peptide (Homo sapiens, UniProt Q5S007)
[14] = target: T2, human 14-3-3 isoform η (recombinant, MBP tag removed) (human, UniProt Q04917 1-246); assay: fluorescence polarisation; direct binding; dilution series of 14-3-3 isoform (at least 5 μM down to picomolar) mixed with 1 nM fluorescein-labelled peptide; 20 mM MOPS pH 7, 150 mM NaCl, 0.005% CHAPS; 384-well plates; conditions: both partners purified
T2 construct: 14-3-3 eta, human; Expressed from pMAL2CX plasmids; also called 14-3-3η; source: E. coli BL21DE3, purified (maltose-agarose, Factor Xa, anion exchange)
T2 sequence (looked up): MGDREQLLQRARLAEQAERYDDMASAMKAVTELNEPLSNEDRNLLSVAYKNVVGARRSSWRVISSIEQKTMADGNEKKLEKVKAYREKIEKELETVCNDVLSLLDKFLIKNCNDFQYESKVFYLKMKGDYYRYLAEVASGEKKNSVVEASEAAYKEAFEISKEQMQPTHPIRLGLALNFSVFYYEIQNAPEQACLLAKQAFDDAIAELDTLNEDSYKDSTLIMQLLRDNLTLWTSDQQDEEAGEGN

[15] = target: T3, human 14-3-3 isoform σ (recombinant, MBP tag removed) (human, UniProt P31947 1-248); assay: as above; conditions: both partners purified
T3 construct: 14-3-3 sigma, human; Expressed from pMAL2CX plasmids; also called 14-3-3σ; source: E. coli BL21DE3, purified (maltose-agarose, Factor Xa, anion exchange)
T3 sequence (looked up): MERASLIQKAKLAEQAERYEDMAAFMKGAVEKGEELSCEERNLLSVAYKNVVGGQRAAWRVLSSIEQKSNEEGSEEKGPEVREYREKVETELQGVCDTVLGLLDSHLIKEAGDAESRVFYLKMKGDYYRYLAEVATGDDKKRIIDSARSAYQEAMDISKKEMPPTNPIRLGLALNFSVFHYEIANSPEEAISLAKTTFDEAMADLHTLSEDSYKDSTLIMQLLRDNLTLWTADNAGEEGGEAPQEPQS

[16] = target: T4, human 14-3-3 isoform ζ (recombinant, MBP tag removed) (human, UniProt P63104 1-245); assay: as above; conditions: both partners purified
T4 construct: 14-3-3 zeta, human; Expressed from pMAL2CX plasmids; also called 14-3-3ζ; source: E. coli BL21DE3, purified (maltose-agarose, Factor Xa, anion exchange)
T4 sequence (looked up): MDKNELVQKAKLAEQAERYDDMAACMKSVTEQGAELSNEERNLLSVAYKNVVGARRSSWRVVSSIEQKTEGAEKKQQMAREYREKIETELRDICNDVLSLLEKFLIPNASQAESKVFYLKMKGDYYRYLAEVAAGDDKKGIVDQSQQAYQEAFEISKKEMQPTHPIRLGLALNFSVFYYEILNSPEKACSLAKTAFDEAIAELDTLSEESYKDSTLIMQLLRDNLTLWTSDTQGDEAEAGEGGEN

[17] = target: T5, human 14-3-3 isoform ε (recombinant, MBP tag removed) (human, UniProt P62258 1-255); assay: as above; conditions: both partners purified
T5 construct: 14-3-3 epsilon, human; Expressed from pMAL2CX plasmids; also called 14-3-3ε; source: E. coli BL21DE3, purified (maltose-agarose, Factor Xa, anion exchange)
T5 sequence (looked up): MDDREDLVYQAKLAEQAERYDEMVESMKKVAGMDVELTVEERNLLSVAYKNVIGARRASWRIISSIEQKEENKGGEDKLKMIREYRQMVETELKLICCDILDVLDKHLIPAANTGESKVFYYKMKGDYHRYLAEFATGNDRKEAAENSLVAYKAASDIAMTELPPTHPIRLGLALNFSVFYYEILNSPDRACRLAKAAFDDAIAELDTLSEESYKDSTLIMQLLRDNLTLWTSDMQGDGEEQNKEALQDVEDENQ

[18] = target: T6, human 14-3-3 isoform θ (recombinant, MBP tag removed) (human, UniProt P27348 1-245); assay: as above; conditions: both partners purified
T6 construct: 14-3-3 theta, human; Expressed from pMAL2CX plasmids; also called 14-3-3θ; source: E. coli BL21DE3, purified (maltose-agarose, Factor Xa, anion exchange)
T6 sequence (looked up): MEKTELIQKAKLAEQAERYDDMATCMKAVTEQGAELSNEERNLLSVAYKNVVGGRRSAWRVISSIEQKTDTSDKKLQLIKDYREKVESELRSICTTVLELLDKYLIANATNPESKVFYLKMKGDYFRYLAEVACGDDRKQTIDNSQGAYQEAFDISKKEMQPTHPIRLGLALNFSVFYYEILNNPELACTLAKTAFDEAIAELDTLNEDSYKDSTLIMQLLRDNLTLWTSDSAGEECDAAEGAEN

[19] = target: T7, human 14-3-3 isoform β (recombinant, MBP tag removed) (human, UniProt P31946 1-246); assay: as above; conditions: both partners purified
T7 construct: 14-3-3 beta, human; Expressed from pMAL2CX plasmids; also called 14-3-3β; source: E. coli BL21DE3, purified (maltose-agarose, Factor Xa, anion exchange)
T7 sequence (looked up): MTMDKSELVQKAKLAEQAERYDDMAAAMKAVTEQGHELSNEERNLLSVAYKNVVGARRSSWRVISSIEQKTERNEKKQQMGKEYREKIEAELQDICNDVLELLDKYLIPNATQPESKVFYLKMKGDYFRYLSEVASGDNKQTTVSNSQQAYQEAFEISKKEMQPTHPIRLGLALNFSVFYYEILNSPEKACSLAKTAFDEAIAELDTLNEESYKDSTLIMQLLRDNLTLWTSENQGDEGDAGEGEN

pS910/pS935, sequence (Q5S007 906-940): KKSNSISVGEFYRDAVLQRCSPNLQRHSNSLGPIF
LRRK2 pS910/pS935 peptide, sequence (Q5S007 whole entry, canonical isoform): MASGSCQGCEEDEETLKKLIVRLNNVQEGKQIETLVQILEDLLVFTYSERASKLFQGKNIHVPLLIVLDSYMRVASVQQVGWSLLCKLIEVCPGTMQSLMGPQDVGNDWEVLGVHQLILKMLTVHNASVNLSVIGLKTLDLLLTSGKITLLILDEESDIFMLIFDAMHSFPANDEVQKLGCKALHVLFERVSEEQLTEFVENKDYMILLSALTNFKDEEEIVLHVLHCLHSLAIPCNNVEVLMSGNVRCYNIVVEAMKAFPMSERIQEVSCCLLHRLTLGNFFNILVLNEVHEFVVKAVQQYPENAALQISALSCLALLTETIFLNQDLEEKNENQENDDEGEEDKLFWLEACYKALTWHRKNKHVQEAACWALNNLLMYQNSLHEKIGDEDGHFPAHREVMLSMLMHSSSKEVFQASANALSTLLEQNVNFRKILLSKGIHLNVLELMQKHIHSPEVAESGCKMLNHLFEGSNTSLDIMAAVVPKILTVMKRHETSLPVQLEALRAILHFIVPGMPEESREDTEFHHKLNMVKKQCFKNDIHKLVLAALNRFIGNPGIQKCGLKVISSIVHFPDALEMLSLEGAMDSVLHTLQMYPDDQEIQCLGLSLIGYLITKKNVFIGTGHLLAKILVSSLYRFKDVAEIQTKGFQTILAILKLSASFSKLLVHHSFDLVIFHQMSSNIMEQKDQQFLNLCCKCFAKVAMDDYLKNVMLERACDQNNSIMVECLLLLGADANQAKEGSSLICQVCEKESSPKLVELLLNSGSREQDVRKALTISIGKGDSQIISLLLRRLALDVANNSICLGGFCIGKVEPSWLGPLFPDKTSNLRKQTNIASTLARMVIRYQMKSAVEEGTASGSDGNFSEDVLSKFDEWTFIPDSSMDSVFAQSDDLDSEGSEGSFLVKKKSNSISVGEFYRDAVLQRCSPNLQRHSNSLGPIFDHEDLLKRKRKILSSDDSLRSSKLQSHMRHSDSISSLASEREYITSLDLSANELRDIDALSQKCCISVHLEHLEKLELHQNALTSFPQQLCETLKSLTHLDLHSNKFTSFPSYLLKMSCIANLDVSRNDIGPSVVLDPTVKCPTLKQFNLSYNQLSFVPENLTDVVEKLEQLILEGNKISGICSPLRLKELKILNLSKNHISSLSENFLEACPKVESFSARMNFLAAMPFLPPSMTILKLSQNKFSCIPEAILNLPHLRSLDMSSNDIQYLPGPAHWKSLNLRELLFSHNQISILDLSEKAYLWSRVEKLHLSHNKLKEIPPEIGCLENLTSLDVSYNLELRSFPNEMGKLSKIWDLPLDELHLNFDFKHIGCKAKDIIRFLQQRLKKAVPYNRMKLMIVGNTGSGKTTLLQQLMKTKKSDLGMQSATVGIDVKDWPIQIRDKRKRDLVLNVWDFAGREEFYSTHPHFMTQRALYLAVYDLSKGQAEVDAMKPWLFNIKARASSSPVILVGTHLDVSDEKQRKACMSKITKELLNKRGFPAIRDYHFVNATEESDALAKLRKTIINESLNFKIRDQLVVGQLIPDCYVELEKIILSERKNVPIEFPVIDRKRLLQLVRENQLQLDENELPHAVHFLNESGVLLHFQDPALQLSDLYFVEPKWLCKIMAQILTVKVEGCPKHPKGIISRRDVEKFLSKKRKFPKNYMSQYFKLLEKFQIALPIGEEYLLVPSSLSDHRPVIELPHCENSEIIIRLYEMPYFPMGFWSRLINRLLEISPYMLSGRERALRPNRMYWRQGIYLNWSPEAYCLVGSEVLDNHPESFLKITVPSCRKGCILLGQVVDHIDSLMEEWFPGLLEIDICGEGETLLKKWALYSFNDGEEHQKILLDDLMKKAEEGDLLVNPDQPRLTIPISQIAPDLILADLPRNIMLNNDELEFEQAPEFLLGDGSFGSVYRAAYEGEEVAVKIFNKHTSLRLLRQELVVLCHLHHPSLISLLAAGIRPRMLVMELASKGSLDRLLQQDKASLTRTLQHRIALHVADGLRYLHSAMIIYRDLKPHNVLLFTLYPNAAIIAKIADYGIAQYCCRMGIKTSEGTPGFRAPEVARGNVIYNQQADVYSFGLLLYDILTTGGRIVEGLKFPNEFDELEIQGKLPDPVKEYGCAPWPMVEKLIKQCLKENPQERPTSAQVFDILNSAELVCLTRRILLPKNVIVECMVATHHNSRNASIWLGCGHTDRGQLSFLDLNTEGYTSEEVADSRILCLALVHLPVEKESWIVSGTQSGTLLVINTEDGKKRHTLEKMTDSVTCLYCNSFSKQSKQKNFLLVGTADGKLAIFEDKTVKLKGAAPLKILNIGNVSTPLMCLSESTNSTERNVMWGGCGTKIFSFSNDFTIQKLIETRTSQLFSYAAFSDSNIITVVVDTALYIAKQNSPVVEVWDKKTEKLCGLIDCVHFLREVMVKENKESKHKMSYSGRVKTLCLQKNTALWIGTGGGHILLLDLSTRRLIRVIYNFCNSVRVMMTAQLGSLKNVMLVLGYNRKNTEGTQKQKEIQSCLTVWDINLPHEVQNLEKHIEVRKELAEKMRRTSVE

B1: 14-3-3σ (protein)
chain: MERASLIQKAKLAEQAERYEDMAAFMKGAVEKGEELSCEERNLLSVAYKNVVGGQRAAWRVLSSIEQKSNEEGSEEKGPEVREYREKVETELQGVCDTVLGLLDSHLIKEAGDAESRVFYLKMKGDYYRYLAEVATGDDKKRIIDSARSAYQEAMDISKKEMPPTNPIRLGLALNFSVFHYEIANSPEEAISLAKTTFDEAMADLHTLSEDSYKDSTLIMQLLRDNLTLWTADNAGEEGGEAPQEPQS
modifications: pS910+pS935
- Kd [13]: 61 nM

B2: pT2524 (peptide)
peptide: fluorescein-HIEVRKELAEKMRR[pT]SVE
notes: LRRK2-derived peptide of the very C-terminus, phosphorylated at T2524; source: synthetic peptide (Peps4LS GmbH)
- binding result [14]: binds
- binding result [15]: binds
- binding result [16]: binds
- binding result [17]: binds
- binding result [18]: binds
- binding result [19]: binds

Now from value to molecule:

- binding against the reference [1]: gained
- binding against the reference [2]: gained
- binding against the reference [3]: gained
- binding against the reference [4]: gained
- binding against the reference [5]: gained
- binding against the reference [6]: gained
- binding against the reference [7]: gained
Molecule: LRRK2 (leucine-rich repeat kinase 2) C-terminus (from UniProt Q5S007) pT2524 peptide

- Kd [8]: 3.2 nM
- Kd [9]: 106 nM
- Kd [10]: 11.1 nM
- Kd [11]: 4.8 nM
- fold decrease in affinity against pS1444 [12]: > 30 fold
Molecule: human 14-3-3 isoform γ (recombinant, MBP tag removed) (from UniProt P61981 1-247) (natural protein)

Source: article PMC7155755, “Binding of the Human 14-3-3 Isoforms to Distinct Sites in the Leucine-Rich Repeat Kinase 2” (Frontiers in Neuroscience, 2020)
